Laboratory results as given in PMC7419741 (QRB Discovery, 2020).

Target: T1, IL8
T1 construct: interleukin 8 (CXCL8), ligand of CXCR2
Experiment: MST; 5 nM NT647-labelled receptor-Fc against a gradient of ligand; 1x PBS, 10 mM DTT, arginine at different concentrations; Monolith NT.115 pico, 25°C; data from the early T-Jump period; Kd model (law of mass action)
Conditions: both partners purified

Kd: 60.3 ± 21 nM
B1: CXCR2^QTY–Fc (Fc fusion)
chain: MEDFNMESDSFEDFWKGEDLSNYSYSSTLPPFLLDAAPCEPESLEINKYYTTTTYAQTYQQSQQGNSQTMQTTQYSRVGRSVTDTYQQNQAQADQQYAQTQPTWAASKVNGWIFGTFLCKTTSQQKETNYYSGTQQQACTSTDRYLAIVHATRTLTQKRYLVKYTCQSTWGQSQQQAQPTQQYRRTVYSSNVSPACYEDMGNNTANWRMQQRTQPQSYGYTTPQQTMQYCYGFTLRTLFKAHMGQKHRAMRTTYATTQTYQQCWQPYNQTQQADTLMRTQVIQETCERRNHIDRAQDATETQGTQHSCQNPQTYAFIGQKFRHGLLKILAIHGLISKDSLPKDSRPSFVGSSSGHTSTTL
modifications: NT647 fluorescent dye (Monolith NT protein labelling kit RED-NHS)
